The data set can be described thus: label from the status in PepcDB records.

Turning to “MMAIQRVGIIGAGKVGIVLAGLALDAGYTVRISGSGSVKKIALTIKTLVPGAIASENADVVANSDIILLAIPLSRYKNIDADLLKGKLVIDAMNYWWETDGIREEVLDPSTTSSEQVQTYFKDAKIVKAFNHMGYHNLQEEARPKGDPKRKALFVTGNDPEAVATVAAFVDHMGFDTVVHNNLADGIMTEPGSPLFGASLRYAELKDIIDHFDQTEFGKEVAAQTHK”, the protein production result was “failed”.
The same measure for “MMANHLVKPDNRNCKRPRELESPVPDSPQLSSLGKSDSSFSEISGLFYKDEALEKDLNDVSKEINLMLSTYAKLLSERAAVDASYIDEIDELFKEANAIENFLIQKREFLRQRFTVIANTLHR”: “failed”; for “MMDFDFLEGKRLTEDVALDETMVWNEDIEMLDLHLVATSALIGVVHRVSYELLSRYLPNDYTAVVVETLARHVKAVPTGTRVAVGVRVVGVVGNRVKFRGIVMSGDEKILEAEFVRAIVPREKLRRLALEKAEKTSRLFGI”: “not failed”; for “MMDRDDDGYAERVAFYDTVYEQPERALDLAWLRRWLPPQFFGRRVLELACGSGYWTQYLAPAARAYQALDVSAGALALAGQRPGVGGVAFAVGEVETLPRPAQPFDAVFAGLWFSHLPRQRREGALAALHGCLAPGATVILLDNSEAQGGQFPVVEYDSEGNGYQSRPRHDGGQSRVLKNFPTEAEFRILLAPYGAAEIALMRREHFWLLRYRLPSRH”: “failed”.
The same measure for “MMDYGIDIWGNENFIIKNGKVCINYEKKPAIIDIVKELRDDGYKGPLLLRFPHLIQKQIENIYGNFNKARKEFGYKGGFNAVYPLKVNQYPGFVKNLVKLGKDYNYGLEAGSKAELLLAMAYNNEGAPITVNGFKDRELINIGFIAAEMGHNITLTIEGLNELEAIIDIAKERFKPKPNIGLRVRLHSAGVGIWAKSGGINSKFGLTSTELIEAVNLLKENKLLEQFTMIHFHLGSQITEIHPLKKALNEAGNIYTELRKMGAKNLKAINLGGGLAVEYSQFKNEKSRNYTLREYANDVVFILKNIAEQKKDLEPDIFIESGRFVAANHAVLIAPVLELFSQEYAENKLILKKQNPKLIDELYDLYKSIKPSNALEYLHDSIDHLESILTLFDLGYVDLQDRSNAEILTHLITKKAILLLGDKQNPADLLAIQDEVQERYLVNFSLFQSMPDFWGLEQNFPIMPLDRLDEEPTRSASIWDITCDSDGEISYSKDKPLFLHDVDVEKENYFLGFFLVGAYQEVLGMKHNLFTHPTEAIISINEKGYEVEGIIEAQSILDTLEDLDYDIHAIMDILNERISNSKLVNDKQKKHILGELYLFLNDNGYLKSIGVLEHHHHHH”: “not failed”.
The value for “MMEDRSLNSHGMPSRRGLEPLEWGATGLTVVLSVAAAATQQAILTAIAPLPLSLAVGLNWVSRKKLDDQFQVFRQQQEAKIAELVASQGQQQSELASLNLALAQVRDRLEDVQKQVMQLNQGAQDLHDYTRILDTEQKQIEEVLDCLREIEKNTQVIQVNPSHAKAYYNRGLTHQRLGDAEAAILDYTEAIRLNDTYAKAYHNRGVARSTLGDRKGAVEDLRTAAKLFFEQGDISSYQRARDLAKRIHEVGSIEQDNQEGTIKEVPLEILFS” was “failed”; that for “MMEKDERFKQAEFGAIVGIVGNIILAIIKAVIGYIGNSKALLADAVHSASDVIGSLAVLFGLRAAKQPPDEDHPYGHGKAESISAIIVAVLLFIVGIEIAISSIKAFSQELEPPKGITIFAVVLSIIVKEGMFQYKFRLGKRVNSDAIIANAYEHRSDVFSSIAALIGICAAIIGGKFGLDWLVYADPIAGLFVSLLVAKMAWSIGTEAIHATLDHVLHEEDVIPLREAVLQIDGVKKIGSLYAREHGHYVIVDIKVSVDPYITVEEGHRIGKRVKETLMLQDNVQNVFVHINPYSPN” was “failed”.
In the case of “MMGDYGITEEDLVIEEAQGYPRAYTKICRDFDAFPYKNGPPFTFMPYILQQNESLRCREVDQMFPVIDPKARPTTKPKIFLSLLWKQLNHLGNAGFDPAVIRIDPYGNVVYFHADSASPLAWSFDHWFPCSRGGLTVPSNLRIVQWQARKNKKDKLEFLVPWWDLQVGISVNQFLSIFAASSSDFRYR”, the protein production result is listed as “failed”.
As to “MMGGKGGFYRHLAVEGNFGGTTQSLAVCSTIGANSVKMPTSFLYTPHRQAEFMALLQISEPGMSASPHRHRLAAGIDLGTTNSLVATVRSGSAACLPDAEGRVTLPSVVRYLENGGIEVGKTALSAQKTDPLNTVSSAKRLIGRTLADLHQNTHYLPYRFGDNQRVIELHTRQGVKTPVEVSAEILKTLKSRAEETLGGDLVGVVITVPAYFDDAQRQATKDAARLAGLNVLRLLNEPTAAAIAYGLDNASEGTFVVYDLGGGTFDVSVLQLTKGLFEVKATGGNSALGGDDFDHRLFCRLLEQNGLSQLNEQDSQLLLSLVRAAKEQLTTQTEARIQATLSDGMAIDTSISRAEFHNLTQHLVMKTLEPVTQALKDAGVGKNEVKGVIMVGGSTRMLHVQQAVATFFGQTPLNNLNPDEVVALGAAIQANVLAGNKTDGEWLLLDVTPLSLGLETYGGLAEKIIPRNSTIPTARAQDFTTFKDGQTAMTIHVVQGERELVSDCRSLAKFTLRGIPPMAAGAARIRVTFQIDADGLLSVSAQEQSTGVQAQIEVKPSYGLDDGAITRMLKDSMDNAAEDMAARARAEAVVEAESLTDAVNAALELDSDLLDAKELQQIRQGIADLQGRLKDGKAEDIRSAVAKLSRSTDNFAAKRMNRNIQRALTGQSVDNI”, the protein production entry is reported as “failed”.
In the case of “MMHHALHIKNGIVIDPKNGVKAEKMDIFVKNGKIVEESEVKGEDVKVIDANNKLVVAGGVDMHAHIAGSKINTGRTMRPEEMRVVRNIAGKFRAAVGRVLLTSPLEHHHHHH”, the protein production entry is on record as “failed”.
In the case of “MMIAAAIFTTCVDGNKFFYHREIKVLRHLKRFNKPALKSIKSEDGDVIDCVPITNQPAFDHHLLKNHTIQMRPSFYPVSDSTYTKREAKAVTQVWHKAGECPKNTVPIRRTKKEDLLRPKSIRSFGRKSHQSIPRTTTFDPTLGHQYALMGVRNGKFYGTEVAINLWKPYVQIPKEFSLAQTWVVSGNGSSLNTIEAGWQVYPELYDDNNPRFFVYWTRDGYRKTGCYNLLCSGFVQTSNRYTVGGSITTMSRYRGTQYDLSVLIWKDQKTGNWWLRVNEKDVIGYWPGSLFNSLGREATRVEWGGEIINSKTGGRHTTTDMGSGHFADEGFKKASYFRNLKIVDGTNTLREPQGLYFFADKHNCYNVKTGNGGTSWGAHFFYGGPGRNVKCP”, the protein production result is “not failed”.
The same measure for “MMIGENKNRPHPTIHIPQWDQINDPTATISSPFSSVNLNSVNDYPHSPSPYLDSFASLFRYLPSNELTNDSDSSSGDESSPLTDSFSSDEFRIYEFKIRRCARGRSHDWTECPFAHPGEKARRRDPRKFHYSGTACPEFRKGSCRRGDSCEFSHGVFECWLHPSRYRTQPCKDGTSCRRRICFFAHTTEQLRVLPCSLDPDLGFFSGLATSPTSILVSPSFSPPSESPPLSPSTGELIASMRKMQLNGGGCSWSSPMRSAVRLPFSSSLRPIQAATWPRIREFEIEEAPAMEFVESGKELRAEMYARLSRENSLG”: “failed”; for “MMIITTMQDAIGRTPVFKFTNKDYPIPLNSAIYAKLEHLNPGGSVKDRLGQYLIGEGFKTGKITSKTTIIEPTAGNTGIALALVAIKHHLKTIFVVPEKFSTEKQQIMRALGALVINTPTSEGISGAIKKSKELAESIPDSYLPLQFENPDNPAAYYHTLAPEIVQELGTNLTSFVAGIGSGGTFAGTARYLKERIPAIRLIGVEPEGSILNGGEPGPHEIEGIGVEFIPPFFENLDIDGFETISDEEGFSYTRKLAKKNGLLVGSSSGAAFVAALKEAQRLPEGSQVLTIFPDVADRYLSKGIYL”: “failed”; for “MMKLLHLFMDEITMDPLHAVYLTVGLFVITFFNPGANLFVVVQTSLASGRRAGVLTGLGVALGDAFYSGLGLFGLATLITQCGEIFSLIRIVGGAYLLWFAWCSSMRRHSTPQMSTLQQPISAPWYVFFRRGLITDLSNPQTVLFFISIFSVTLHAETPTWARLMAWAGIVLASIIWRVFLSQAFSLPAVRRAYGRMQRVASWVIGAIIGVFALRLIYEGVTQR”: “failed”.
The same measure for “MMKNKKVEANLSMVVSKTFSGLNMNALKYLLPVWVSPLSGVTLRCVFAAIAFWIIGMFVKPEISTRKEKIFLFLLGALGIYGFMFLYLMGLSKTTPVSSSIFTSLQPIWVFVIAVVFFKEKISAMKIAGISLGLGGAILCILAQKSDDLASDALTGNMLCLLSSIAYAVYLVASNRILKSVGMFTVLKYTFAGAAFSSIVVSAVTGFHAPVFSGPLHWFPLSVLLFVLIFPTVVSYLLVPIGLKYLKTTVVAIYGYLILIVATIVSLLVGQDRFSWSQTIAIGMICVSVYLVEVAETKEKPVSNSDKPSSLPPHGS”: “failed”; for “MMLAVEDVLSELAGEERNERGLPPGFRFHPTDEELITFYLASKIFHGGLSGIHISEVDLNRCEPWELPEMAKMGEREWYFYSLRDRKYPTGLRTNRATTAGYWKATGKDKEVFSGGGGQLVGMKKTLVFYKGRAPRGLKTKWVMHEYRLENDHSHRHTCKEEWVICRVFNKTGDRKNVGLIHNQISYLHNHSLSTTHHHHHEALPLLIEPSNKTLTNFPSLLYDDPHQNYNNNNFLHGSSGHNIDELKALINPVVSQLNGIIFPSGNNNNDEDDFDFNLGVKTEQSSNGNEIDVRDYLENPLFQEASYGLLGFSSSPGPLHMLLDSPCPLGFQL”: “failed”; for “MMMEEKLVINELELGKELANRLMNNLKHTSSVDSNKTLISDILRIYQNAIFMLSFNQDKNILKRSLEIDGKDSKNVFKKRKVSEKNTEKVKVFVATEQENGSIDDGHCWRKYGQKEIHGSKNPRAYYRCTHRFTQDCLAVKQVQKSDTDPSLFEVKYLGNHTCNNITSPKTTTNFSVSLTNTNIFEGNRVHVTEQSEDMKPTKSEEVMISLEDLENKKNIFRTFSFSNHEIENGVWKSNLFLGNFVEDLSPATSGSAITSEVLSAPAAVENSETADSYFSSLDNIIDFGQDWLWS”: “failed”.
The value for “MMNLALQQRISELGPWFQNMRFGEIETAPDHFLGDYPAFKWEGFKHVVPKDLEGCSVLDIGCNAGFYALEMKRRNAGRVLGIDSDPRYLEQARFAADHFGLDVEFRQMSVYEVSKLGERFDLVLFMGVLYHLRHPLLALDLLYEHVVADLMLFQCLQRGEERIAKLEEDYDFSEWKIFDRSDFPKLFFVEERFAADPTNWFIPNKAAVEAMLRSSGFVIEANPEREVYLCRRGRRPYKVEPPPG” was “failed”; that for “MMNNVKYLSFALILAFSACKSGSASSQEPSEKQDTVKIFNLPQIPVVLNTVEQRTDYMVKHYWDRFDFSDTTYINQAEVPEQAWVDYCDLLEHVPLPVAQTAMKETFNRAEKNRKMLHFFEELADKYLYDPNSPMRNEEFYIPVLEALIASPALDETAKIRPQARLELAQKNRLGTKALNFTYTLDSGVKGTLYQFPAEYTLLFINNPGCHACAEMIEGLKASPVINGFTAAKKLKVLSIYPDEELDEWKKHRNDFAKEWTNGYDKELVIKNKNLYDLRAIPTLYLLDKNKTVLLKDATLQKVEQYLAERG” was “failed”.

Values taken from a protein production outcome set (Wang et al. 2014).
